Measurements reported in PMC11422484 (Cell Reports, 2024).

Target: full-length native GPC (strain Josiah) expressed on HEK293T cells (Lassa virus, strain Josiah, UniProt P08669)
Assay: flow cytometry on cells
Conditions: one partner purified

B1: 25.10C IgG (antibody, V domains shown)
VH: QVQLQESGGGLVKPGGSLRLSCTASGFNFNKYNMNWVRQAPGKGLEWVSSISALSTYIYYADSLKGRFTVSRDNAKNSLFLQMNSLRDDDTAVYYCAREIRRASTWSADLWGRGTLVTVSS
VL: DIQMTQSPSSLSASVGDRVIITCRASQSISSSLNWYQQKPGKAPKLLIYAAVNLETGVPSRFSGSGFGTDFTLAISNVQPEDFATYYCQQSDTRTFGRGTKLDVK
notes: IgG1
binding result: binds
